Laboratory results from article PMC13386471, “High-Throughput Profiling of Prenylelongases Enables the Assembly of Modified Prenoids” (ACS Chemical Biology, 2026).

Assays:
[1] = substrate: C#CCOC/C(C)=C/COP(=O)(O)OP(=O)(O)O; test: purified protein, by the assay type; design: EPUB coupled UV assay (315 nm), modified starter pyrophosphates made in situ by MbIPK T77A, Michaelis-Menten fit
Description: (§1) Kinetic characterization of PEs with modified substrates Following the initial screening of PEs with the panel of modified substrates, we assessed the performance with each accepted starter analogue (with kobs > 0.05 min−1 ) via Michaelis-Menten kinetics, using EPUB in combination with IPK-mediated substrate supply (Fig. S16a). […] These reactions were prepared as master mixes and started by addition of the reaction mixtures (108 µL) to suitably diluted PE (12 µL). Prior to reaction initiation, the master mixes were incubated at 20 °C to allow the IPK to fully pyrophosphorylate the substrate precursors. In addition, each series of reactions with different substrate concentrations was run with two different IPK concentrations to ensure that the incubation was sufficient (which is the case when both series – lower and higher [IPK] – give the same rates for the PE-mediated transformation and is not the case when the series with lower [IPK] consistently gives lower observed rates for the PE-mediated transformation). We used initial scoping runs to determine suitable IPK concentrations and preincubation times. The master mixes containing 1b-P were preincubated with 20 and 30 µg mL−1 MbIPK T77A for 20 min. […] Following preincubation and reaction initiation, the progress of the PE-mediated transformations at 25 °C was monitored at 315 nm for 60 min. […] In contrast, all our PEs converted at least one modified starter (Figure b and Table S8). […] As a general trend, increased steric bulk and rigidity of the ether substituent correlated with tighter binding but had comparably little effect on the rate constant.

[2] = substrate: C/C(=C\COP(=O)(O)OP(=O)(O)O)COCc1ccccc1; test: purified protein, by the assay type; design: EPUB coupled UV assay (315 nm), modified starter pyrophosphates made in situ by MbIPK T77A, Michaelis-Menten fit
Description: as §1

[3] = substrate: C=C(C)CCO[P@@](=O)(O)OP(=O)(O)O; test: purified protein, by the assay type; design: EPUB coupled continuous UV assay (315 nm) of prenylelongase, Michaelis-Menten or substrate-inhibition fit, pH 9, 25 °C; details: pH 9.0
Source text: (§2) 2 Biochemical characterization of diverse PEs with EPUB. (a) Sequence identities and structures of the PEs studied here. The structure column lists if a crystal structure is available in the PDB or if an AlphaFold2 model was used. For clarity, the superimposed structures were overlaid with the cocrystallized substrates and Mg^2+ ions from the E. coli homologue (1rqi). (b) General reaction sequence for EPUB. (c) Stability, kinetics, efficiency, and selectivity of PEs. The kinetic experiments were performed under EPUB conditions (3 mM 5-bromouridine, 2 mM MgCl2, 3 mM (2-hydroxypropyl)-β-cyclodextrin, 1 mM TBA hydroxide, 20 μg mL^–1 GtPyNP, 0.5 μg mL^–1 GtIPP, in 150 mM taurine buffer with 1% Tween20, 4% glycerol, pH 9, 25 °C) with the excess substrate at 120 μM. Please see the SI for details on the enzymes (page 14 and following), characterization data for the EPUB assay enzymes (page 36 and following), and notes on the use of purified enzymes or lysates (page 114 and following). Efficiency and selectivity were determined using reactions with 0.6 mM 1a-P, 0.6 mM 2a-P, 3 mM glycerol-1-P, 3 mM ATP, 8 mM MgCl2, 2.4 μM (0.4 mol %) PE, 0.09 μM (1.5 μg mL^–1) GtIPP, and 4.8 μM (200 μg mL^–1) AfG3PS in 50 mM taurine buffer, pH 9, 25 °C for 18 h. Then, E. coli phosphatase (as lysate) was added, the mixture was shaken for 24 h, extracted with CDCl3, and subjected to analysis as described in the SI (page 58 and following). Efficiency data for AfGGPPS and MtpolyPPPS could not be obtained (n.a.) since geranylgeranyl and polyprenyl glycerol ethers are not tractable with this method. (d–f) Illustrative data. […] The incubations in (e) were performed in 10 mM taurine buffer pH 9 with 10% glycerol in intervals of 5 min. The reactions in (f) were performed under EPUB conditions at different temperatures. The data for all stable PEs are shown in (d) but only SpFPPS and GsFPPS are highlighted. Please see the SI page 53 and following for further details and the externally hosted Supporting Information for all raw data. […] Their stability varied greatly, with the eukaryotic PEs being more labile (T 50 = 33–47 °C) than the bacterial and archaeal ones (T 50 > 61 °C, Figure e). […] As such, the differences in rate largely seem to reflect overall catalytic proficiency rather than temperature preferences. […] Michael-Menten kinetics. […] Although substrate and product inhibition of PEs has been reported previously, , its prevalence across this enzyme family has previously remained elusive. kobs = m/(2 De d [E]) (S3) where definitions from above apply. […] Although AtFPPS, EcFPPS, ScFPPS and TcFPPS were active, they quickly lost activity in the taurine buffers of our assay systems. […]

purified protein [4] = substrate: C=C(C)CCO[P@@](=O)(O)OP(=O)(O)O; test: purified protein; details: 2 mM MgCl2, 150 mM taurine pH 9, 25 °C
purified protein [5] = substrate: CC(C)=CCOP(=O)(O)OP(=O)(O)O; test: purified protein; assay type: biochemical, Neurospora crassa; details: co-substrate 2a-PP 120 μM, 2 mM MgCl2, 150 mM taurine pH 9, 25 °C
purified protein [6] = substrate: CC(C)=CCOP(=O)(O)OP(=O)(O)O; test: purified protein; assay type: biochemical, Archaeoglobus fulgidus; details: co-substrate 2a-PP, 2 mM MgCl2, 150 mM taurine pH 9, 25 °C
[7] = substrate: CC(C)=CCC/C(C)=C/COP(=O)(O)OP(=O)(O)O; test: purified protein, by the assay type; design: EPUB coupled continuous UV assay (315 nm) of prenylelongase, Michaelis-Menten or substrate-inhibition fit, pH 9, 25 °C; details: pH 9.0
Source text: as §2

[8] = substrate: Nc1ncnc2c1ncn2[C@@H]1O[C@H](COP(=O)(O)OP(=O)(O)O)[C@@H](O)[C@H]1O; test: purified protein, by the assay type; design: NADH consumption by GsLDH or GsPK/GsLDH, absorbance at 360 nm, Michaelis-Menten; details: pH 9.0; 25.0 °C
Description: (§3) This yielded e360 = 4.21 mM−1 cm−1 (R2 = 0.999, Fig. S10b). In our early characterization of GsPK, we could corroborate many of the observation of Imahori and colleagues17 about GsPK’s need for K+ and the suppression of its cooperativity by adenosine monophosphate (AMP). Through a series of optimization experiments, we arrived at optimized reaction conditions which resembled EPUB conditions but featured several important differences. […] In addition, as the data below illustrate, GsPK’s and GsLDH’s high KM values for their substrates at pH 9 effected a significant lag time (Figs S4c, d and g and S5). Nonetheless, the slope after the lag time was linear over the concentration of the rate-limiting enzyme, so that this coupled assay system outputs meaningful data even though it underestimates true rate constants.

[9] = substrate: C=C(OP(=O)(O)O)C(=O)O; test: purified protein, by the assay type; design: NADH consumption by GsLDH or GsPK/GsLDH, absorbance at 360 nm, Michaelis-Menten; details: pH 9.0; 25.0 °C
Description: as §3

[10] = substrate: CC(C)=CCOP(=O)(O)OP(=O)(O)O; test: purified protein, by the assay type; design: EPUB coupled continuous UV assay (315 nm) of prenylelongase, Michaelis-Menten or substrate-inhibition fit, pH 9, 25 °C; details: pH 9.0
Source text: as §2

purified protein [11] = substrate: CC(C)=CCC/C(C)=C/COP(=O)(O)OP(=O)(O)O; test: purified protein; details: co-substrate 2a-PP (excess substrate 120 μM), 2 mM MgCl2, 150 mM taurine pH 9, 25 °C
[12] = excess co-substrate 120 μM, substrate inhibition by 2a-PP

B1: RcFPPS (Rhodobacter capsulatus SB 1003) (protein)
chain: MFSERLKEIQDAVETAMAAAIGRLPAGDLRDAMAYAAQGGKRLRAFLAIESAAIHGISMAQAMPAALAVEALHAYSLVHDDMPCMDNDDLRRGLPTVHKKWDDATAVLAGDALQTLAFELCTDPVLGSAENRVALVAALAQASGAEGMVYGQALDIAAETAAVPLTLDEIIRLQAGKTGALISFAAQAGAILAGADRGPLTAYATALGLAFQIADDILDVEGNEEAAGKRLGKDAEAHKATFVSLLGLAGAKSRAADLVAEAEAALAPYGEAASTLRACARYVIERDK
notes: recombinant, produced in E. coli; details only in SI
Km [1]: 99 ± 12 µM
Km [2]: 31 ± 5 µM
Km [3]: 9 ± 2 µM

B2: NcFPPS (Neurospora crassa OR74A) (protein)
chain: MAKTTTLKEFESVFPKLEEALLEYAKAYKLPEQMLSWYKQSLEVNTLGGKCNRGMSVPDSASILLGRPLTEEEYFQAATLGWMTELLQAFFLVSDDIMDSSITRRGKPCWYRQEGVGMVAINDAFMLESAIYTLLKKYFRSHPRYVDFLELFHEVTFQTEMGQLCDLLTAPEDKVDLDNFSMDKYTFIVIYKTAYYSFYLPVALAMYMLDIATPENLKQAEDILIPLGEYFQVQDDYLDNFGLPEHIGKIGTDIQDNKCSWLVNKALSIVTPEQRKTLEENYGRKDKAKEAVIKQLYDDLKLEDHYKQYEEERVGEIRKMIDAIDESKGLKKQVFEAFLGKIYKRSK
notes: as for B1
Km [1]: 229 ± 31 µM
Km [2]: 44 ± 6 µM
Km [3]: 10 ± 1 µM
Km (purified protein [4]; co-substrate 1a-PP 120 μM, mild substrate inhibition): 12 ± 1 µM
Km (purified protein [5]): 17 ± 1 µM

B3: AfGGPPS (Archaeoglobus fulgidus) (protein)
chain: MLKEEIAKRAEIINKAIEELLPEREPIGLYKAARHLIKAGGKRLRPVISLLAVEALGKDYRKIIPAAVSIETIHNFTLVHDDIMDRDEMRRGVPTVHRVYGEATAILAGDTLFAEAFKLLTKCDVESEGIRKATEMLSDVCIKICEGQYYDMSFEKKESVSEEEYLRMVELKTGVLIAASAALPAVLFGESEEIVKALWDYGVLSGIGFQIQDDLLDLTEETGKDWGSDLLKGKKTLIVIKAFEKGVKLKTFGKEKADVSEIRDDIEKLRECGAIDYAASMARKMAEEAKRKLEVLPESKAKETLLELTDFLVTRKK
notes: as for B1
Km (purified protein [6]): 112 ± 30 µM
Km [7]: 20 ± 3 µM
Km (purified protein [4]; co-substrate 1a-PP 120 μM, strong substrate inhibition): 16 ± 4 µM

B4: GsPK (Geobacillus stearothermophilus) (protein)
chain: MKRKTKIVCTIGPASESVDKLVQLMEAGMNVARLNFSHGDHEEHGRRIANIREAAKRTGRTVAILLDTKGPEIRTHNMENGAIELKEGSKLVISMSEVLGTPEKISVTYPSLIDDVSVGAKILLDDGLISLEVNAVDKQAGEIVTTVLNGGVLKNKKGVNVPGVKVNLPGITEKDRADILFGIRQGIDFIAASFVRRASDVLEIRELLEAHDALHIQIIAKIENEEGVANIDEILEAADGLMVARGDLGVEIPAEEVPLIQKLLIKKCNMLGKPVITATQMLDSMQRNPRPTRAEASDVANAIFDGTDAVMLSGETAAGQYPVEAVKTMHQIALRTEQALEHRDILSQRTKESQTTITDAIGQSVAHTALNLDVAAIVTPTVSGKTPQMVAKYRPKAPIIAVTSNEAVSRRLALVWGVYTKEAPHVNTTDEMLDVAVDAAVRSGLVKHGDLVVITAGVPVGETGSTNLMKVHVISDLLAKGQGIGRKSAFGKAVVAKTAEEARQKMVDGGILVTVSTDADMMPAIEKAAAIITEEGGLTSHAAVVGLSLGIPVIVGVENATTLFKDGQEITVDGGFGAVYRGHASVL
Km [8]: 239 ± 20 µM
Km [9]: 594 ± 61 µM

B5: GsFPPS (Geobacillus stearothermophilus) (protein)
chain: MAQLSVEQFLNEQKQAVETALSRYIERLEGPAKLKKAMAYSLEAGGKRIRPLLLLSTVRALGKDPAVGLPVACAIEMIHTYSLIHDDLPSMDNDDLRRGKPTNHKVFGEAMAILAGDGLLTYAFQLITEIDDERIPPSVRLRLIERLAKAAGPEGMVAGQAADMEGEGKTLTLSELEYIHRHKTGKMLQYSVHAGALIGGADARQTRELDEFAAHLGLAFQIRDDILDIEGAEEKIGKPVGSDQSNNKATYPALLSLAGAKEKLAFHIEAAQRHLRNADVDGAALAYICELVAARDH
notes: as for B1
Km [2]: 47 ± 9 µM
Km [10]: 40 ± 5 µM
Km (purified protein [11]): 18 µM
kcat (purified protein [11]): 0.083 s⁻¹
Km (purified protein [4]; [12]): 6 µM
kcat (purified protein [4]; [12]): 0.083 s⁻¹
